These results are taken from the nanobody polyreactivity screen of Harvey et al. (2022).

This series in a line: yeast display, Sf9 membrane polyspecificity reagent, FACS + sequencing; frameworks hold sequencing errors. The gist of the method: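 In a synthetic yeast display library (Saccharomyces cerevisiae BJ5465), nanobody expression was induced with galactose for 36–48 hours. FACS gates were set low and high (top ~1%) using anti-HA fluorescence for expression and streptavidin fluorescence for binding of the Sf9 membrane reagent. Each polyreactivity label is drawn from the gate of origin.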
For “EEELVESGGGLVQAGGSLRLSCAASGIIFGYYAMGWYRQAPGKERELVAAITRSGSSTYYADSVKGRFTISRDNAKNTVYLQMNSLKPEDTAVVSCAADNFYQAYGYWGQGTQVTVSS”, the “polyreactivity (PSR sort gate)” value was “low polyreactivity”.

Regarding “EEELVESGGGLVQAGGSLRLSCAASGSIFQYNAMGWYRQAPGKDRELVAVISWSGDTYYADSVKGRFTISRDNAKNTVYLQMNSLKPEDTAVYYCNAVQYTFTSEYGYWGQGTQVTVSS”, the “polyreactivity (PSR sort gate)” value is “low polyreactivity”.

As for “EEELVESGGGLVQAGGSSLRLSCAASGFIFVSNAMGWYRQAPGKERELVASIRWSDGSTFDADSVKGRFTNSRDNAKNTVYLQMNSLKPEDTAVYYCNAVYEHRRVGWVTIDYGYWGQGTQVTVSA”, the “polyreactivity (PSR sort gate)” value is “low polyreactivity”.

On to “EEQLVESGGGLVQPGGSLRLSCAASVYIYSRYRMGWYRQAPGKGREFVAAISGGSSPNYADCVKGRFTISRDNSKNTVYLQMNSLRAEDTAVYYCAAYKIDSDPRVYWGQGTQVTVSS”, for which the “polyreactivity (PSR sort gate)” value is recorded as “low polyreactivity”.

In the case of “EVQLVESGGGLVHAGGSLRLICAASGFTFTGYTMGWYRQAPGKERELVATISGSGGNTYYADSVKGRFTISRDNAKNTVYLQINSVKPEDTAVYYCARLRSGPRVLYYYWGQGTQVTVSS”, the “polyreactivity (PSR sort gate)” value is reported as “low polyreactivity”.

“EVQLVESGGGLVQAGGSLRLSCAASGFTFGVYARGWYRQAPGKERELVAAITWGDGSTYYADSVKGRFTISRDNAKNTVYLQMNSLKPEDTAVYYCNAVTRRHKYYYWGQGTQVTVSS”: the “polyreactivity (PSR sort gate)” value is on record as “high polyreactivity”.

On to “EVQLVESGGGLVQAGGSLRLSCAASGFTFSYNAMGWYRQAPGKERELVAAIDWGGGSTYADSVKGRFTISRDNAKNTVYLQMNSLKPEDTAVYYCAAYIPSSGRNPEIGVEYDYWGQGTQVTVSS”, for which the “polyreactivity (PSR sort gate)” value is listed as “low polyreactivity”.

With “EVQLVESGGGLVQAGGSLRLSCAAYGSTFSTYAMGWYRQAPGKERELVAAISFGGGSTYADSVKGRFTISRDNAKNTVYLQMNSLKPEDTAVYYCNTDLYLYGWYPRDVQQYAGGDYWGQGTQVTVSS”, the “polyreactivity (PSR sort gate)” value was “low polyreactivity”.

With “EVQLVESGGGLVQPGGSLRLSCAASGYIYRRYRMGWYRQAPGKGREFVAAISGGSSTNYADSVTGRFTISRDNSKNTVFLQMNSLRAEDTAVYYCAAYKIDSYPRVYWGQGTQVTVSS”, the “polyreactivity (PSR sort gate)” value is “low polyreactivity”.

As for “FVQAGGSLRLSCAASGFIFGVYDMGWYRQAPGKERELVAAIDSVGSTYYADSVKGRFTISRDNAKNTVYLQMNSLNPEDTAVYYCAKDGSYQAYGYWGQGTQVTVSS”, the “polyreactivity (PSR sort gate)” value is recorded as “low polyreactivity”.

As to “HDQHVESAGGLVQAGGSLRLSCAASGFILRWYAMGWYRQAPGKERELVAAISWSGGSTYYADSVKGRFTISRDNAKNTVYLQMNSEKPEVTAVYYCNAVNYRNKYDYWGQGTQVTVSS”, the “polyreactivity (PSR sort gate)” value was “high polyreactivity”.

For “HEQLQESGGGLVQAVGSLRLSCAASGHISRSSTMGWYRQAPGKERELVTAITRGTNTNYADSVKGRFTISRDNAKNSEYLQMNSLKPEDTAVYYCAAYGVLKPSRGDAVFHRYWGQGTQVTVSR”, the “polyreactivity (PSR sort gate)” value is on record as “low polyreactivity”.

With “HEQLVESGGGLVQAGGSLRLICAASGRIFPRYAMGRYRQAPGKEMELVAAITKRDGSTYYADSVKGRFTISRDNAKNTVYLQMNSLKPEDSAVYYCATRRLYSKSWYYYWGQGTQVTVSS”, the “polyreactivity (PSR sort gate)” value is recorded as “high polyreactivity”.

With “HFQLVESGGRLVQAGGSIRLSCAASGRIFRPNAMGWYRQAPRKERQLVAAISYSGATTYYADSVKGRFTISRDNEKNTVYLQMNSLKPEDTAVYYCAACGTSAKEFGYWGQGTQVTVSS”, the “polyreactivity (PSR sort gate)” value is on record as “low polyreactivity”.

Consider “HVELVEAGGGVVQAGGSLRLSCAASGRIFRYYVMGWYRPAPGKEREFVASISGRGASTYYADSVKGRFTISRDNAKNTVYIKRNSLKPEDTAVYYCNADVWLLSYVPEYDYWGQGTQVTVSS”, for which the “polyreactivity (PSR sort gate)” value was “low polyreactivity”.

“HVHLVESGGGLVQAGGSLRLSCAASARTFWRYAMGRKRQAPGKERELVAAISVSGGTTYYADAVKGRFTISRDNAQNTVYLQMISLKPEATAVYYCAARYWHSYGYWGQGTQVTVSS”: the “polyreactivity (PSR sort gate)” value was “high polyreactivity”.

Take “HVKLQESGDGLVQAGGSLRLSSAPSGTIYSDYGMGGSRQAPGKERELLAGISDGCNTNYTDSVKGRFTISRDNAHRVSADEQPETGGYRGVLLRGSERWLLFYVYWGQGTQVTVSS”: the “polyreactivity (PSR sort gate)” value is listed as “high polyreactivity”.

Regarding “HVPLVESGGGLVQAGGSLRLSCAASGSTFSVNVLGWYRLAAGKERELVAAITQAGGSTYYADSVKGRFSISRDTAKNTVYLQMNSLKPEDTAGYYCAVEKWSVYSFFLEGADYWGQGTQLTVSS”, the “polyreactivity (PSR sort gate)” value is “low polyreactivity”.

In the case of “HVQIVESGGGLVQAGGRLRLSCAASGSTFHDYAMGWYRQATGQERELVAAISNSGGSTYYADSVKARFTISRDNAKNTVYLQMKSQKPEYTAVYYCAADGRWYWDYEYWGQGTQVTVSS”, the “polyreactivity (PSR sort gate)” value is “low polyreactivity”.

For the sequence “HVQLEDSGGGLVQAGGRLRITCAASGRSSETNDMGWYRQAPGKERELVAAISSSGGSTYYADSVKGRFTISRDNAKNTVYLQMNSLQPEDTAVYYCYAVYYRTVLKIGVYEYDYWGQGTQVTVSS”, the “polyreactivity (PSR sort gate)” value was “low polyreactivity”.

Turning to “HVQLEETGRGLVQAGGSLRISCAASGRIFEYYAMGWYRQAPGKDRELVAAITSSTGSTSYADSVKGRFTISRDNEKNTVYLQMNSLKPEDTAVYYCAADVWFFSKLSRYDYWGQGTQVTVSS”, the “polyreactivity (PSR sort gate)” value is “low polyreactivity”.

Turning to “HVQLGESGGGLVQAGGSLRLSCAASGFIFTAYVMGWYRQAPGKERELVAAISRSGGSTYYADSVKGRFTISRDNAKHTVYLQMNSLKPEDTAVYYCAKLRRDARYDYWGQGTQVTVSS”, the “polyreactivity (PSR sort gate)” value is recorded as “high polyreactivity”.

In the case of “HVQLQEIGGGLVQAGDSQRLSCAASGNIFRFTDMGRYRQAPGKERELVAAINAGSTTYYAASVKGRFTISRDNAKNTVYLQMNSLKPEDTAVYYCNALYSYKYGRKYDYWGQGTQVTVSS”, the “polyreactivity (PSR sort gate)” value is listed as “high polyreactivity”.

As to “HVQLQESAGGLVQAGGSLRLSCAASGTISSREAMGWYSQAPGKERDFVATIASGTTTYYADSVKGSFTISRDNAENTVYLQTNTLKPEDTAVYYCAAPTIQIYPFYYWGHGTQVTVSS”, the “polyreactivity (PSR sort gate)” value was “high polyreactivity”.

With “HVQLQESGGGLLQAGGSLRLSCAASGSIFQATYMGWYRQATGKEREFVASITYGSITNYADSVKGRFTIGRDNAKDTLYLQMNSLKPEFTAVYYCAVARHYIPAFHYWGQGTQVTVSS”, the “polyreactivity (PSR sort gate)” value is on record as “low polyreactivity”.

For the sequence “HVQLQESGGGLVQAGGSLRLSCAASGSIFQATYMGWYRPAPGKEREFVASITYGSITNYADSVKGRFTIGRDNAKDTLYLQMNSLKPEDTAVYYCAAVGRRRTTVGRYVRMDYWGQGTQVTVSS”, the “polyreactivity (PSR sort gate)” value is “low polyreactivity”.

“HVQLVESGGGLVQAAGSLRLSCAASGRIFSAYAMGWYRQAPGKEREFVAAITQSGGSTYYAESVKGRFTISRDNAKNTVYLQMNSLKPEDTAVYYCAAGDAYYTEALPFGEYDYWGQGTQVTVSS”: the “polyreactivity (PSR sort gate)” value was “low polyreactivity”.

Take “HVQLVESGGGLVQAGGRLRLSCAASASIFDSNAMGWYRQAPGKERELVADIRGIGGSTYYADSVKGRFTISRDNAKNTVYLQMNSLKPEDTAVYYCNTSTLGGYYWGQGTQVTVSS”: the “polyreactivity (PSR sort gate)” value is recorded as “low polyreactivity”.

On to “HVQLVESGGGLVQAGGSLRISCAASGITFYAYAMGWYRQAPGKERELVAAITRRGGSTRYADSVKGRFTITRDNAKNTVYLQMNSLKPEDTAVYYCNARSGRYFLGYGYWGQGTQVTVSS”, for which the “polyreactivity (PSR sort gate)” value was “high polyreactivity”.

In the case of “HVQLVESGGGLVQAGGSLRLSCAASGFIFRYYAMGWYRQAPGKERELVAAISWSGTPTFYADSVKGRFTISRDNAKNTVYLQMNSLKPEDTAVYYCAAETTGYDSYIQYEYWGQGTQVTVSS”, the “polyreactivity (PSR sort gate)” value is recorded as “high polyreactivity”.

On to “HVQLVESGGGLVQAGGSLRLSCAASGFTFGYYAMGWYRQAPGKERELVAAISSSGGSTYYADSVKGRFTISRDNAKNTVYLQMNSLKPEDTAVYFCAVVVFSRVYRYFTSDYWGQGTQVTVSS”, for which the “polyreactivity (PSR sort gate)” value is listed as “high polyreactivity”.

Take “HVQLVESGGGLVQAGGSLRLSCAASGIIFGAYALGWYRQAPGKERELVAAITYSSGSTYYADSVKGRFTISRDNAKNTVYLQMNSLKPEDTAVYYCAKTNFSQSSRYNYDYWGQGTQVTVSS”: the “polyreactivity (PSR sort gate)” value is given as “low polyreactivity”.

Consider “HVQLVESGGGLVQAGGSLRLSCAASGRIFGYNAMGWYRQAPGKEREFVATITYNDGSTYYADSVKGRFTMSRDNAKNTVYLQMNSLKPEDTAVYYCAADLIWTVYGWKYDYWGQGTHVTVSS”, for which the “polyreactivity (PSR sort gate)” value is listed as “low polyreactivity”.

Regarding “HVQLVESGGGLVQAGGSLRLSCAASGRIFRINVMGWCRQAPGKERELVAAISGRGGSTYYADSVKGRFTISRDNAQNTDYLQMNRLKPEDTAVYYFAARSPYRYYYWGQGTQVTVSS”, the “polyreactivity (PSR sort gate)” value is listed as “high polyreactivity”.

Consider “HVQLVESGGGLVQAGGSLRLSCAASGRILSRNAMGRYRPAPGKERELVAAISISGGSTYYADSVKGRFTISRDNAKNTVYLQRNSLKPEDTAVYYCNTAYYGYRKYDYWGQGTQVTVSS”, for which the “polyreactivity (PSR sort gate)” value is on record as “high polyreactivity”.

As to “HVQLVESGGGLVQAGGSLRLSCAASGRTFLGNAMGWYRQAPGKERQLVAVITGSGARTYYADSEKGRFTISRDNAKNTVYLQMNSLKPEDTAVYYCAAAGFSGQYRSYYWGQGTQVTVSS”, the “polyreactivity (PSR sort gate)” value is reported as “high polyreactivity”.

In the case of “HVQLVESGGGLVQAGGSLRLSCAASGSIFSENTMGWYRQAPGKEWELVAAISWSGGSTNYADSVKGRFTISRDNAKNTVYLQMNSLKPEDTAVYYCAKDVGSADPTYYYWGQGTQVTVSS”, the “polyreactivity (PSR sort gate)” value was “low polyreactivity”.

For “HVQLVESGGGLVQAGGSLRLSCAASGSTFFKYGMGWNRQAPGKERELVASITSRTGSTYYADSVKGRFTISRDNAKNTVYLQMKSLKPEDTAVYYCNVRRGGGYRYGARTFIYGHWGEGTQVTVSS”, the “polyreactivity (PSR sort gate)” value is “high polyreactivity”.

Consider “HVQLVESGGGLVQAGGSLRLSCAASGSTFGQYTMGWYRQAPGKERELVATISSGGSTYYADSVKGRFTISRDNAKHTVYLQMNSLKPEDTAVYYCAARYWSIYDYWGQGTQVTVSS”, for which the “polyreactivity (PSR sort gate)” value was “low polyreactivity”.

On to “HVQLVESGGGLVQAGGSLRLSCAASGSTFNINAMVWYRQAPGKERELFAAISWSGDITYYADSVKGRFTISRDNAKNTVYLLMISLKPEDTAVYYCNTDDPGNYWYAEYDYWGQGTQVTVSS”, for which the “polyreactivity (PSR sort gate)” value was “low polyreactivity”.

As to “HVQLVESGGGLVQAGGSLRLSCAASGSTFNRYAMGWYRQAPGKERELVAAITERGGSTYYADSVKGRFTISRDNAKNTVYLQMNRLIPEDTAVYYCAARSKYYRSTPFVSDYWGQGTQVTVSS”, the “polyreactivity (PSR sort gate)” value is recorded as “high polyreactivity”.
